Test [1] has as its target T1, PD1 expressed on HEK293F cells (UniProt Q15116 25-288, limits assumed).
T1 construct: whole, on cells; also called HEK293F expressing PD1; HKE293F expressing PD1
Briefly: flow cytometry binding, receptor occupancy (0 to 1) on HEK293F cells expressing PD1 against Antibody (nM).

In test [2] the target is T2, human Trop2 (human, UniProt P09758 27-274, limits assumed).
T2 sequence (looked up): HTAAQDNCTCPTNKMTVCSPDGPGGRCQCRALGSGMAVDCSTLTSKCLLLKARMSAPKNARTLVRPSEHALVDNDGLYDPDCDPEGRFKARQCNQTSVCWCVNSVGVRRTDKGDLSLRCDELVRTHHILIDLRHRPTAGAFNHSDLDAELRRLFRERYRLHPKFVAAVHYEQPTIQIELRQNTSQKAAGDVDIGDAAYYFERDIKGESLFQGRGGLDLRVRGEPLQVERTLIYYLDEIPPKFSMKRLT
Briefly: absorbance assay (Net absorbance, Abs 450) on 'Trop2-hFc'; one unprinted antibody concentration.

For test [3], the target named is human CD3 (human). Kind of test: Octet sensorgrams (nm against time), panel 'Human CD3', association to about 900 s, dissociation to 1800 s.
human CD3 (human), sequence (chain, as listed by the source): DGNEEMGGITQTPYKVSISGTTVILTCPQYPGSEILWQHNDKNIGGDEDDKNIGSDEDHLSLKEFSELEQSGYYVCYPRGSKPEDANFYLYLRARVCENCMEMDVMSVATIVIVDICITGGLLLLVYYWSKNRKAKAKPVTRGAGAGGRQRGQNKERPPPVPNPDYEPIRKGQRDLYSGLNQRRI
The target of test [4] is T3, monkey CD3 (monkey).
T3 chain: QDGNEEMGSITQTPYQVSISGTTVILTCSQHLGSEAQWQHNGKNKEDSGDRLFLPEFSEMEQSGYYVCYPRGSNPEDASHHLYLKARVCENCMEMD
Briefly: Octet sensorgrams (nm against time), panel 'Cynomolgus CD3', association to about 900 s, dissociation to 1800 s. On the technique in general: BLI is a label-free optical method that tracks binding on a fibre tip over time.

Test [5] deals with T4, Trop2 on cells (Trop2-positive SW480 cells; Trop2-expressing HEK293 cells) (UniProt P09758 27-323, limits assumed).
T4 construct: whole, on cells
T4 sequence (looked up): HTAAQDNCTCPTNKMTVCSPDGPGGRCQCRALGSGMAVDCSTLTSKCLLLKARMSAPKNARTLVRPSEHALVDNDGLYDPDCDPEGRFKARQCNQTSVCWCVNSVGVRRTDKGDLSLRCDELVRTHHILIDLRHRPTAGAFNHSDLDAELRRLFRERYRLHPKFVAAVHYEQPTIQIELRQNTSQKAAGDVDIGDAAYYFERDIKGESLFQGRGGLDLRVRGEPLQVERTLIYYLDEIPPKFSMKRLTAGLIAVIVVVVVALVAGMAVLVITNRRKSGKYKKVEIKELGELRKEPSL
Briefly: receptor occupancy (Percentage) on DLD1/DLD1-2C7 cancer cells against ARB203 (nM); Trop2 arm of ARB203.

In test [6] the target is human CD3 (human). Kind of test: receptor occupancy (Percentage) on PBMC against ARB203 (nM); the legend speaks of occupancy on T cells, the CD3 arm of ARB203.
For test [7], the target named is T4, Trop2 on cells (Trop2-positive SW480 …). Briefly: receptor occupancy (%) on Trop2-positive SW480 cells against ARB203 (nM).
Test [8] has as its target T2, human Trop2. Kind of test: Octet (BLI).

Where only a bound is given, the exact number is not on record here.

The record followed here is patent publication US20250034273A1 (ARBELE, published 2025).

T1 sequence (Q15116 25-288 limits assumed): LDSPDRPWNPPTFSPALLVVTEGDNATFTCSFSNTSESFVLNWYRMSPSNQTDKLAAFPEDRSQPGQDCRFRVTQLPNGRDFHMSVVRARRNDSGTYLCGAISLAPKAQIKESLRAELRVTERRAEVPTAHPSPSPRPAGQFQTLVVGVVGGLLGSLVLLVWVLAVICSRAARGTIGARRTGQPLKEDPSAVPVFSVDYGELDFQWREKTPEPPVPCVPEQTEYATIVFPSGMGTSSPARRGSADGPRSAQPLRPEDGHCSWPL

B1: ARB204, CDH17-PD1 bispecific antibody (anti-CDH17 10C12 Fab, anti-PD1 1C8 scFv) (bispecific antibody, human IgG1, kappa)
heavy: EVQLVESGGGLVQPGGSLRLSCAASGFTFSSYAMSWVRQTPGKGLEWVAVIDSNGGSTYYPDTVKDRFTISRDNSKNTLYLQMNSLRAEDTAVYYCSSYTNLGAYWGQGTLVTVSAASTKGPSVFPLAPSSKSTSGGTAALGCLVKDYFPEPVTVSWNSGALTSGVHTFPAVLQSSGLYSLSSVVTVPSSSLGTQTYICNVNHKPSNTKVDKRVEPKSCDKTHTCPPCPAPELLGGPSVFLFPPKPKDTLMISRTPEVTCVVVDVSQEDPEVQFNWYVDGVEVHNAKTKPREEQFNSTYRVVSVLTVLHQDWLNGKEYKCKVSNKGLPSSIEKTISKAKGQPREPQVYTLPPSQEEMTKNQVSLTCLVKGFYPSDIAVEWESNGQPENNYKTTPPVLDSDGSFFLYSRLTVDKSRWQEGNVFSCSVMHEALHNHYTQKSLSLSLGKPAGGGGSEVQLVESGGGLVQPGGSLRLSCAASGFTFSRSTMSWVRQAPGKGLEWVATISGGGLNTYFPDSVKGRFTISRDNSKNTLYLQMNSLRAEDTAVYYCTRNSNSYYFALDYWGQGTLVTVSSGGGGSGGGGSGGGGSEIVLTQSPATLSLSPGERATLSCRASESVDNSGVSFMNWYQQKPGQAPRLLIYIASNQVSGIPARFSGSGSGTDFTLTISSLEPEDFAVYYCQQIKEVPWTFGGGTKVEIK
light: DIQMTQSPSSLSASVGDRVTITCRASQDISGYLNWLQQKPGGAIKRLIYTTSTLDSGVPKRFSGSGSGTDFTLTISSLQSEDFATYYCLQYASSPFTFGGGTKVEIKRTVAAPSVFIFPPSDEQLKSGTASVVCLLNNFYPREAKVQWKVDNALQSGNSQESVTEQDSKDSTYSLSSTLTLSKADYEKHKVYACEVTHQGLSSPVTKSFNRGEC
notes: IgG4 Fc with IgG1 hinge, bivalent to each target
Broadly, the EC50 is the concentration at which the effect is half-maximal. B1 showed an EC50 in test [1] of 0.217 nM.

B2: ARB203-h3G8 v1 (bispecific antibody)
heavy: EVQLVESGGGLVQPGGSLRLSCAASGFTFSTYTMSWVRQTPAKGLVWVSTINSDGYNIYYSDSMKGRFTISRDNAKYTLYLQMNSLRAEDTAMYYCARCSYYSYDYFDYWGQGTLVTVSSASTKGPSVFPLAPSSKSTSGGTAALGCLVKDYFPEPVTVSWNSGALTSGVHTFPAVLQSSGLYSLSSVVTVPSSSLGTQTYICNVNHKPSNTKVDKRVEPKSCDKTHTCPPCPAPELLGGPSVFLFPPKPKDTLMISRTPEVTCVVVDVSQEDPEVQFNWYVDGVEVHNAKTKPREEQFNSTYRVVSVLTVLHQDWLNGKEYKCKVSNKGLPSSIEKTISKAKGQPREPQVYTLPPSQEEMTKNQVSLTCLVKGFYPSDIAVEWESNGQPENNYKTTPPVLDSDGSFFLYSRLTVDKSRWQEGNVFSCSVMHEALHNHYTQKSLSLSLGKPAGGGGSQVQLVQSGAEVKKPGASVKVSCKASGYTFTSYYMHWVRQAPGQGLEWMGWIYPENVNTNYAQKFQGRVTMTRDTSISTAYMELSRLRSDDTAVYYCARDSYGSYFFDYWGQGTLVTVSSGGGGSGGGGSGGGGSDIVMTQSPDSLAVSLGERATINCKSSQSLLNSRTRKNYLAWYQQKPGQPPKLLIYWASTRESGVPDRFSGSGSGTDFTLTISSLQAEDVAVYYCTQSFILRTFGQGTKVEIK
light: DIQMTQSPSSLSASVGDRVTITCRASENIDNYLAWYQQKQGKVPKLLIYAATNLADGMPSRFSGSGSGTDFTLTISSLQPEDVATYYCQHYYSNQLTFGQGTKLEIKRTVAAPSVFIFPPSDEQLKSGTASVVCLLNNFYPREAKVQWKVDNALQSGNSQESVTEQDSKDSTYSLSSTLTLSKADYEKHKVYACEVTHQGLSSPVTKSFNRGEC
notes: also called h8B5-h3G8 V1; h8B5-h3G8v1
Consider B2, for which the binding result in test [2] is on record as “binds”.

B3: h8B5-h3G8v2, bispecific anti-Trop2 (h8B5) / anti-CD3 (h3G8 scFv V2, VL-VH with 3xGS linker) (bispecific antibody, human IgG1, kappa)
heavy: EVQLVESGGGLVQPGGSLRLSCAASGFTFSTYTMSWVRQTPAKGLVWVSTINSDGYNIYYSDSMKGRFTISRDNAKYTLYLQMNSLRAEDTAMYYCARCSYYSYDYFDYWGQGTLVTVSSASTKGPSVFPLAPSSKSTSGGTAALGCLVKDYFPEPVTVSWNSGALTSGVHTFPAVLQSSGLYSLSSVVTVPSSSLGTQTYICNVNHKPSNTKVDKRVEPKSCDKTHTCPPCPAPELLGGPSVFLFPPKPKDTLMISRTPEVTCVVVDVSQEDPEVQFNWYVDGVEVHNAKTKPREEQFNSTYRVVSVLTVLHQDWLNGKEYKCKVSNKGLPSSIEKTISKAKGQPREPQVYTLPPSQEEMTKNQVSLTCLVKGFYPSDIAVEWESNGQPENNYKTTPPVLDSDGSFFLYSRLTVDKSRWQEGNVFSCSVMHEALHNHYTQKSLSLSLGKPAGGGGSDIVMTQSPDSLAVSLGERATINCKSSQSLLNSRTRKNYLAWYQQKPGQPPKLLIYWASTRESGVPDRFSGSGSGTDFTLTISSLQAEDVAVYYCTQSFILRTFGQGTKVEIKGGGGSGGGGSGGGGSQVQLVQSGAEVKKPGASVKVSCKASGYTFTSYYMHWVRQAPGQGLEWMGWIYPENVNTNYAQKFQGRVTMTRDTSISTAYMELSRLRSDDTAVYYCARDSYGSYFFDYWGQGTLVTVSS
light: B2 light
notes: IgG4 Fc with IgG1 hinge, scFv at the heavy chain C-terminus
In general, Kd refers to the concentration at which binding is half-saturated. B3: the dissociation constant (Kd) in test [3] was found to be 3.7 nM; in test [4] it was 0.802 nM.

B4: ARB203, bispecific antibody of anti-Trop2 (h8B5) and anti-CD3 (UCHT1) (bispecific antibody, human IgG1, kappa)
heavy: EVQLVESGGGLVQPGGSLRLSCAASGFTFSTYTMSWVRQTPAKGLVWVSTINSDGYNIYYSDSMKGRFTISRDNAKYTLYLQMNSLRAEDTAMYYCARCSYYSYDYFDYWGQGTLVTVSSASTKGPSVFPLAPSSKSTSGGTAALGCLVKDYFPEPVTVSWNSGALTSGVHTFPAVLQSSGLYSLSSVVTVPSSSLGTQTYICNVNHKPSNTKVDKRVEPKSCDKTHTCPPCPAPELLGGPSVFLFPPKPKDTLMISRTPEVTCVVVDVSQEDPEVQFNWYVDGVEVHNAKTKPREEQFNSTYRVVSVLTVLHQDWLNGKEYKCKVSNKGLPSSIEKTISKAKGQPREPQVYTLPPSQEEMTKNQVSLTCLVKGFYPSDIAVEWESNGQPENNYKTTPPVLDSDGSFFLYSRLTVDKSRWQEGNVFSCSVMHEALHNHYTQKSLSLSLGKPAGGGGSEVQLVESGGGLVQPGGSLRLSCAASGYSFTGYTMNWVRQAPGKGLEWVALINPYKGVSTYNQKFKDRFTISVDKSKNTAYLQMNSLRAEDTAVYYCARSGYYGDSDWYFDVWGQGTLVTVSSGGGGSGGGGSGGGGSDIQMTQSPSSLSASVGDRVTITCRASQDIRNYLNWYQQKPGKAPKLLIYYTSRLESGVPSRFSGSGSGTDYTLTISSLQPEDFATYYCQQGNTLPWTFGQGTKVEIK
light: B2 light
notes: IgG4 Fc with IgG1 hinge; Bivalent Fab to Trop2 and bivalent scFv to CD3 at the heavy chain C-terminus
As usually defined, the EC50 (read off the curve) is the concentration needed to bring the measured effect to its halfway point. Turning to B4, in test [5], the half-maximal effective concentration (EC50 (read off the curve)) was approximately 0.4 nM. In addition, the half-maximal effective concentration (EC50) in test [6] stood at 20.9 nM; in test [7], 0.155 nM. Also, the dissociation constant Kd in test [8] is not above 0.001 nM.
